Test results from publication PMC2901902.

Legend:
[1] = target: DPF3b PHD12 with Ala mutation of Glu315 or Asp335; assay: ITC
[2] = target: histone H3 acetylated at lysine 14 in C2C12 chromatin (mouse (endogenous in C2C12)) (UniProt P68433); assay: re-ChIP

“histone H3 peptide acetylated at lysine 14 (residues 1–18) (from UniProt P68431 2-19)” was tested. Which fold reduction in affinity (against wild type PHD12) [1] did it give?
The fold reduction in affinity (against wild type PHD12) was 80 to 250 fold.

EGFP-DPF3b D263A or F264A mutant was tested. Which fold reduction of co-occupancy (against wild type DPF3b) [2] did it give?
Its fold reduction of co-occupancy (against wild type DPF3b) is 2 to 3 fold.
